# Experimental data reported in US20240066100A1.
# Key:
# [1] = target: human IL-18BP (amino acids 31-194), biotinylated (human) (UniProt O95998); experiment: SPR, apparent KD
# Target sequence in this assay (O95998 other isoform, or with tags, fused parts or gaps limits assumed, form in doubt): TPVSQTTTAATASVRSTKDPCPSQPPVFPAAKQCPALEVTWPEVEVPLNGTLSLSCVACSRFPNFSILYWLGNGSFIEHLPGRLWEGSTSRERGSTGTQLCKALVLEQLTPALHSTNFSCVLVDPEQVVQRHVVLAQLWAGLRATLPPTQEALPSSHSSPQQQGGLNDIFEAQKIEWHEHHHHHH
# [2] = target: human IL-18BP (amino acids 31-194), biotinylated (human) (UniProt O95998); experiment: SPR, Biacore T100
# Target sequence in this assay (O95998 other isoform, or with tags, fused parts or gaps limits assumed, form in doubt): as above
# [3] = target: human IL-18BP (amino acids 31-194), biotinylated (human) (UniProt O95998); experiment: on-yeast binding isotherm, flow cytometry
# Target sequence in this assay (O95998 other isoform, or with tags, fused parts or gaps limits assumed, form in doubt): as above
# [4] = target: human IL-18BP (amino acids 31-194), biotinylated (human) (UniProt O95998); experiment: SPR; KD IL-18BP / KD IL-18Rα normalized to WT IL-18
# Target sequence in this assay (O95998 other isoform, or with tags, fused parts or gaps limits assumed, form in doubt): as above
# [5] = target: human IL-18BP (amino acids 31-194), biotinylated (human) (UniProt O95998); experiment: SPR, Biacore T100; hIL-18BP as surface ligand; Exp 1
# Target sequence in this assay (O95998 other isoform, or with tags, fused parts or gaps limits assumed, form in doubt): as above
# [6] = target: human IL-18BP (amino acids 31-194), biotinylated (human) (UniProt O95998); experiment: SPR, Biacore T100; hIL-18BP as surface ligand; Exp 2
# Target sequence in this assay (O95998 other isoform, or with tags, fused parts or gaps limits assumed, form in doubt): as above
# [7] = target: human IL-18BP (amino acids 31-194), biotinylated (human) (UniProt O95998); experiment: SPR, Biacore T100; hIL-18BP as surface ligand, IL-18 as analyte
# [8] = target: human IL-18BP (amino acids 31-194), biotinylated (human) (UniProt O95998); experiment: SPR, Biacore T100; biotinylated receptor on chip, IL-18 as analyte
# [9] = target: human IL-18BP (amino acids 31-194), biotinylated (human) (UniProt O95998); experiment: SPR, representative sensorgram, immobilized biotinylated hIL-18BP
# [10] = target: human IL-18BP (amino acids 31-194), biotinylated (human) (UniProt O95998); experiment: SPR, biotinylated receptor on streptavidin capture chip, IL-18 as free analyte
# [11] = target: human IL-18BP (amino acids 31-194), biotinylated (human) (UniProt O95998); experiment: SPR
# [12] = target: human IL-18BP (amino acids 31-194), biotinylated (human) (UniProt O95998); experiment: yeast display binding; conditions: ligand
# Target sequence in this assay (O95998 other isoform, or with tags, fused parts or gaps): as the sequence (O95998 other isoform, or with tags, fused parts or gaps limits assumed, form in doubt) above
# Chain of wild-type human Interleukin-18 (mature form) (Q14116 37-193): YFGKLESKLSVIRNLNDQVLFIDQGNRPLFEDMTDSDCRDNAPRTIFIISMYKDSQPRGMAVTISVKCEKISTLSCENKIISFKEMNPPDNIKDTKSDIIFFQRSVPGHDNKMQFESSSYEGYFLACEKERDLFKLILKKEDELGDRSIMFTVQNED
substance,measurement,setting,value
wild-type human Interleukin-18 (mature form) (from UniProt Q14116 37-193) (ligand),Kd,[1],< 0.1 nM
same,Dissociation Constant Ratio normalized to WT IL-18,[2],1
same,KD ratio IL-18BP/IL-18Rα,[2],0.000648
same,Dissociation Constant Ratio normalized to WT IL-18,[3],1
same,KD ratio IL-18BP/IL-18Rα,[3],0.295
same,Kd,[3],7.08 nM
same,IL-18 BP:Rα Dissociation Constant Ratio,[4],1
same,Kd,[5],0.694 pM
same,Kd,[6],0.43 pM
same,koff,[7],2.23e-07 s⁻¹
same,kon,[7],518000 M⁻¹ s⁻¹
same,Kd,[8],1.9 pM
same,Kd,[9],2 pM
same,Kd,[10],< 1 nM
same,Kd,[11],0.002 nM
human decoy-to-the-decoy (D2D) IL-18 variant SEQ ID NO: 98 (from UniProt Q14116 38-193),Kd,[12],5.4 nM
human decoy-to-the-decoy (D2D) IL-18 consensus variant SEQ ID NO: 124 (from UniProt Q14116 37-193),Kd,[12],7.9 nM
human decoy-to-the-decoy (D2D) IL-18 variant SEQ ID NO: 99 (from UniProt Q14116 38-193),Kd,[12],4.8 nM
human decoy-to-the-decoy (D2D) IL-18 variant SEQ ID NO: 120 (from UniProt Q14116 37-193),Kd,[12],4.2 nM
human decoy-to-the-decoy (D2D) IL-18 variant SEQ ID NO: 101 (from UniProt Q14116 37-193),Kd,[12],8.8 nM
human decoy-to-the-decoy (D2D) IL-18 consensus variant SEQ ID NO: 123 (from UniProt Q14116 37-193),Kd,[12],5.9 nM
human decoy-to-the-decoy (D2D) IL-18 variant SEQ ID NO: 94 (from UniProt Q14116 38-193),Kd,[12],6.4 nM
human decoy-to-the-decoy (D2D) IL-18 consensus variant SEQ ID NO: 125 (from UniProt Q14116 37-193),Kd,[12],8.9 nM
wild-type human Interleukin-18 (mature form) (from UniProt Q14116 37-193),Kd,[11]; ligand,0.6 nM
same,Kd,[12],2.1 nM
